Results as given in patent US20210349096A1.

Target: LILRB4 on human monocytic AML THP-1 cells (human) (UniProt Q8NHJ6)
Assay: flow cytometry, anti-His tag-APC alone on wild-type THP-1 cells (negative control); lilrb4-knockout THP-1 cells in the same panel: KO 0.9% [panel e]

Chain of LILRB4 on human monocytic AML THP-1 cells (human) (Q8NHJ6 22-448): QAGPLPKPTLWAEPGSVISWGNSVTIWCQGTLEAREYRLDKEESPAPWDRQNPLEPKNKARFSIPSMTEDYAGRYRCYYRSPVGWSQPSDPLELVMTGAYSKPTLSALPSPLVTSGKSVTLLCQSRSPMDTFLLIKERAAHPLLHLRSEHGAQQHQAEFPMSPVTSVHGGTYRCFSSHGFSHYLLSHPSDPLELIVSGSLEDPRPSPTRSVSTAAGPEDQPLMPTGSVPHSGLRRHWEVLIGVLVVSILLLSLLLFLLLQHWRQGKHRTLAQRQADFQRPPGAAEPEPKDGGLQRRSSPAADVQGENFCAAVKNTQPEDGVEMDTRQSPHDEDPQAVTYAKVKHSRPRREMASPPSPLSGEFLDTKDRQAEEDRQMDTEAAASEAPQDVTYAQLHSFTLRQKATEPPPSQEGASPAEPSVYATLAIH

Ctrl (anti-His tag-APC) (antibody)
% of cells in the positive gate: 0.4%
